50 sequences from the supplement of paper PMC9112550, “Optimization of the antimicrobial peptide Bac7 by deep mutational scanning” (BMC Biology, 2022) can be followed below.

The data set deals with Escherichia coli TOP10. The data set is described as follows: shrunken log2 fold change of peptide-encoding DNA abundance (4.5 h post-induction vs induction); higher = less antimicrobial activity (less host growth inhibition). As to conditions: time post-induction: 4.5 h; library: site-saturation at positions 5, 18, 19, 20.
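Note: peptides expressed intracellularly from a pBAD plasmid library in pooled LB shake-flask culture, induced with 0.3% L-arabinose, DNA abundance read by NGS, three biological replicates, DESeq2 with apeglm shrinkage.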

As for RRIRPRPPRLPRPRPRPSMDPRP, the “shrunken log2 fold change” value is -0.448.

In the case of RRIRRRPPRLPRPRPRPNAAPRP, the “shrunken log2 fold change” value is 0.794.

On to RRIRCRPPRLPRPRPRPVNDPRP, for which the “shrunken log2 fold change” value was -0.186.

Take RRIRIRPPRLPRPRPRPGTGPRP: the “shrunken log2 fold change” value worked out at 0.0659.

Consider RRIRCRPPRLPRPRPRPRIAPRP, for which the “shrunken log2 fold change” value was determined as 0.0204.

Consider RRIRGRPPRLPRPRPRPHMYPRP, for which the “shrunken log2 fold change” value is -0.0997.

In the case of RRIRQRPPRLPRPRPRPGRIPRP, the “shrunken log2 fold change” value was -0.123.

As to RRIRQRPPRLPRPRPRPREVPRP, the “shrunken log2 fold change” value is 4.11.

For the sequence RRIRVRPPRLPRPRPRPFQAPRP, the “shrunken log2 fold change” value was -0.127.

For the sequence RRIRVRPPRLPRPRPRPFIDPRP, the “shrunken log2 fold change” value was found to be 0.0294.

Take RRIRRRPPRLPRPRPRPIYGPRP: the “shrunken log2 fold change” value was -0.69.

As to RRIRFRPPRLPRPRPRPTNDPRP, the “shrunken log2 fold change” value is -0.414.

As for RRIRYRPPRLPRPRPRPCAGPRP, the “shrunken log2 fold change” value was -0.0602.

Turning to RRIRRRPPRLPRPRPRPLMVPRP, the “shrunken log2 fold change” value is -0.161.

With RRIRARPPRLPRPRPRPRPTPRP, the “shrunken log2 fold change” value was found to be 0.867.

Take RRIRNRPPRLPRPRPRPHKFPRP: the “shrunken log2 fold change” value was -0.231.

Turning to RRIRWRPPRLPRPRPRPEVGPRP, the “shrunken log2 fold change” value is 1.38.

For RRIRVRPPRLPRPRPRPRMLPRP, the “shrunken log2 fold change” value is -0.103.

Turning to RRIRKRPPRLPRPRPRPGQSPRP, the “shrunken log2 fold change” value stood at 0.306.

In the case of RRIRDRPPRLPRPRPRPLAMPRP, the “shrunken log2 fold change” value stood at 0.767.

On to RRIRSRPPRLPRPRPRPVYTPRP, for which the “shrunken log2 fold change” value is -0.105.

RRIRDRPPRLPRPRPRPCWGPRP: the “shrunken log2 fold change” value turned out to be 0.0493.

On to RRIRCRPPRLPRPRPRPYEEPRP, for which the “shrunken log2 fold change” value was -0.255.

RRIRWRPPRLPRPRPRPCSRPRP: the “shrunken log2 fold change” value was -0.162.

Take RRIRERPPRLPRPRPRPSGAPRP: the “shrunken log2 fold change” value is -0.12.

In the case of RRIRIRPPRLPRPRPRPIIEPRP, the “shrunken log2 fold change” value is -0.0807.

For the sequence RRIRDRPPRLPRPRPRPCPQPRP, the “shrunken log2 fold change” value is -0.132.

For the sequence RRIRCRPPRLPRPRPRPWVLPRP, the “shrunken log2 fold change” value was -0.265.

Turning to RRIRVRPPRLPRPRPRPLSVPRP, the “shrunken log2 fold change” value was -0.0714.

RRIRSRPPRLPRPRPRPLMHPRP: the “shrunken log2 fold change” value was -0.142.

Regarding RRIRWRPPRLPRPRPRPNFMPRP, the “shrunken log2 fold change” value worked out at 0.0497.

In the case of RRIRQRPPRLPRPRPRPCMTPRP, the “shrunken log2 fold change” value turned out to be 0.0109.

Regarding RRIRSRPPRLPRPRPRPDDFPRP, the “shrunken log2 fold change” value is -0.151.

With RRIRVRPPRLPRPRPRPCRLPRP, the “shrunken log2 fold change” value was -0.0106.

For RRIRDRPPRLPRPRPRPDQSPRP, the “shrunken log2 fold change” value turned out to be 0.0019.

On to RRIRWRPPRLPRPRPRPGQMPRP, for which the “shrunken log2 fold change” value is 0.0528.

With RRIRIRPPRLPRPRPRPEPYPRP, the “shrunken log2 fold change” value came out at 0.0464.

With RRIRARPPRLPRPRPRPNECPRP, the “shrunken log2 fold change” value is -0.409.

As to RRIRNRPPRLPRPRPRPFWVPRP, the “shrunken log2 fold change” value is 0.0863.

For RRIRDRPPRLPRPRPRPTEFPRP, the “shrunken log2 fold change” value is -0.0306.

With RRIRFRPPRLPRPRPRPPIQPRP, the “shrunken log2 fold change” value turned out to be 0.0333.

RRIRKRPPRLPRPRPRPVQYPRP: the “shrunken log2 fold change” value is 0.071.

RRIRNRPPRLPRPRPRPPMAPRP: the “shrunken log2 fold change” value was 0.361.

Regarding RRIRDRPPRLPRPRPRPSSVPRP, the “shrunken log2 fold change” value was -0.0994.

As to RRIRLRPPRLPRPRPRPPTDPRP, the “shrunken log2 fold change” value was 0.127.

Consider RRIRCRPPRLPRPRPRPPSNPRP, for which the “shrunken log2 fold change” value is -0.416.

For RRIRHRPPRLPRPRPRPMLEPRP, the “shrunken log2 fold change” value was found to be 0.0721.

For RRIRQRPPRLPRPRPRPTHWPRP, the “shrunken log2 fold change” value came out at 0.427.

For the sequence RRIRARPPRLPRPRPRPKWHPRP, the “shrunken log2 fold change” value was found to be 0.235.

As to RRIRGRPPRLPRPRPRPHDFPRP, the “shrunken log2 fold change” value is -0.0983.
